Results reported in PMC11407090, “Kinetic and in silico structural characterization of norbelladine O-methyltransferase of Amaryllidaceae alkaloids biosynthesis” (The Journal of Biological Chemistry, 2024).

Assays:
[1] = substrate: Oc1ccc(CCNCc2ccc(O)c(O)c2)cc1; assay: LC-MS/MS methyltransferase assay, nonlinear regression; type: biochemical, Narcissus papyraceus; conditions: SAM as methyl donor, Mg^2+, product 4'-O-methylnorbelladine, optimized condition pH 7.4, 45 °C, 30 min
Excerpt: (§1) LC-MS/MS methyltransferase assay, nonlinear regression on NpOMT

[2] = substrate: O=Cc1ccc(O)c(O)c1; assay: as above; type: biochemical, Narcissus papyraceus; conditions: SAM as methyl donor, Zn^2+, product vanillin (3-O-methylation, major product), optimized condition pH 7.4, 45 °C
Excerpt: as §1

B1: NpOMT (Narcissus papyraceus) (protein)
chain: MGASQDDYALIHKNILHSEELLKYILETSAYPREHEQLKGLREVTEKHEWSSALVPADEGLFLSMLLKLMNAKRTIEIGVYTGYSLLTTALALPEDGKITAIDVNKSFFEIGLPFIQKAGVEHKINFIESEALPVLDQMVQEMKEEDLYDYAFVDADKSNYANYHERLVKLVRVGGAILYDNTLWYGSVAYPEYPGLHPEEEVARLSFRQLNTLLAADPRVEISQVSIGDGVTICRRLY
notes: homodimer only modelled
Protein B1 has a Km [1] of 169 ± 19 µM, a Vmax [1] of 10.9 µM/min and a kcat [1] of 0.0362 ± 0.004 s⁻¹. The kcat/Km [1] was 214 M⁻¹ s⁻¹, the Km [2] was 491 ± 51 µM and the Vmax [2] was 19.1 µM/min. For the same protein, the kcat [2] was 0.0637 ± 0.0025 s⁻¹ and the kcat/Km [2] was 130 M⁻¹ s⁻¹.
